From patent US20230374114A1 (Dana-Farber, published 2023) come the findings set out here.

The chains are these.
B1: Ab_16 (scFv, V domains shown)
VH: QVQLVQSGGGVVQPGRSLRLSCAASGFTFSNYGMHWVRQAPGKGLEWVALIWERGSKKDYADSVKGRFTVSRDNSKNTLYLQMNSLRPEDTAVYFCAREGISMTGAEYFQHWGQGTLVTVSS
VL: QSVLTQPPSVSGSPGQRVTMSCTGSSSNIGAGYDVHWYQQVPGAAPRLLIYGTNNRPSGVPDRFSGSKSGTSASLTITGLQAEDEADYYCQSYDNSLTDPYVFGTGTKVTVL
B2: Ab_19 (scFv, V domains shown)
VH: EVQLVESGAEVKKPGESLKISCKGSGYSFTSYWIGWVRQMPGKGLEWMGIIYPGDSDTRYSPSFQGQVTISADKSISTAYLQWSSLKASDTAMYYCARRGDLDAFDIWGQGTMVTVSS
VL: QPGLTQPPAASGTPGQRVTVSCSGASANIGSNAVSWFKQFPETAPRLLISGNTHRPSGVPDRVSGSKSGTSASLTISGLQSDDEADYYCAAWDDSLNGYVFGSGTKVTVL
B3: Ab_17 (scFv, V domains shown)
VH: QVQLVQSGGGVVQPGRSLRLSCAASGFTFDDYAMHWVRQVPGKGLEWVSGIDWNSGVIGYADSVKGRFTISRDNVKNSLYLQMNSLRTEDSALYYCAKDIGPGGSGSYYAFDIWGQGTTVTVSS
VL: QSALTQPASVSGSPGQSITISCTGTSSDVGGSKYVSWYQQHPGKAPKVMIYDVTKRPSGVPDRFSGSKSGNTASLTISGLQAEDEADYYCAAWDDSLNGVVFGGGTKLTVL
B4: S1-RBD-R3-T1-C7 Ab (Ab 29) (scFv, V domains shown)
VH: QVQLQQSGPGLVKPSQTLSLTCAISGDSVSSYSDAWNWIRQSPSRGLEWLGRTYYRSKWYNDYAVSVKSRITINPDTSKNQFSLQLSSVTPEDTAVYYCAREIVATTPFRNYYYGMDVWGQGTTVTVSS
VL: NFMLTQPHSVSESPGNTVTISCTRTSGSIASNYVQWYQQRPGSSPTTVIFQDKLRPSGVPDRFSGSIDSSSNSASLTISGLKTEDEADYYCQSYDSSSLWVFGGGTKLTVL
B5: Ab_18 (scFv, V domains shown)
VH: EVQLVQSGGGVVQPGRSLRVSCAASGFSFSRYGMHWVRQAPGKGLEWVAFIRHDGSKKYYADSVEGRFTISRDNSRNTVSLEMNSLRGEDTAVYYCAKDGRLEAALDDWGQGTLVTVSS
VL: NFMLTQPHSMSGSAGKTVTVSCIRSSGSIANNFVQWYQQRPGSAPTTVIYEDNQRPSGVPDRFSGSIDSSSNSASLTISGLKTEDEADYYCQSYDSSNLVFGGGTRLTVL
B6: Ab 20 (scFv, V domains shown)
VH: QVQLVQSGGGSVKPGGSLRLSCAASGYRLSDYYMHWVRQAPGKGLEWVANIKQDGSEKYYVDSVKGRFTISRDNAKNSLYLQMNSLRAEDTAVYYCARVRGWSRGYFDYWGQGTLVTVSS
VL: NFMLTQPHSVSESPGKTVTISCTGSSGSIASNYVQWYQQRPGSAPTTVIYEDNQRPSGVPDRFSGSIDSSSNSASLLISGLKTEDEADYYCQSYDSSNHWVFGGGTKLTVL
B7: S1-RBD-R3-T1-B12 Ab (Ab_31) (scFv, V domains shown)
VH: QVQLVQSGAEVKKPGSSVKVSCKASGGTFSSYTISWVRQAPGQGLEWMGGIIPILGTPNYAQKFQDRVAITADKSTSTAYMELSSLRSEDTAVYYCAVGSGWYSGFDYWGQGTLVTVSS
VL: NFMLTQPHSVSESPGKTVTISCTGSSGSIASNYVQWYQQRPGSAPTTVIYEDSQRPSGVPDRFSGSIDSSSNSASLTISGLKTEDEADYYCQSFHNSNPVIFGGGTKLTVL
B8: Ab 25 (scFv, V domains shown)
VH: QVQLVQSGGGLVQPGGSLRLSCAASGFTFSSYWMSWVRQAPGKGLEWVANIKQDGSEKYYVDSVKGRFTISRDNAKNSLYLQMNSLRAEDTAVYYCARGFYYYGAFDIWGQGTTVTVSS
VL: NFMLTQPHSVSESPGKTVTISCTGSSGSIASNYVQWYQQRPGSAPTTVIYEDNQRPSGVPDRFSGSIGSSSNSASLTISGLKTEDEADYYCQSYDSSNHWVFGGGTKLTVL
B9: Ab 28 (scFv, V domains shown)
VH: QVTLKESGPGLVNPSETLSLTCTVSGASISNSFWSWIRQSPGKGLEWIGYTSYSGNSIYNPSLKSRLTMSIDTSKNQLSLNLRSLTAADTAVYYCARREWIKGHFDYWGQGTLVTVSS
VL: NFMLTQPHSVSESPGKTVTISCTGSGGSIASNYVQWYQQRPGSAPTTVIYEDNQRPSGVPDRFSGSIDSSSNSASLTISGLKTEDEADYYCQSYDSSNPVVFGGGTKLTVL
B10: Ab 27 (scFv, V domains shown)
VH: QVQLVQSGTEVKKPGASVKVSCKASGYSFTGSHLHWVRQAPGQGLEWMGWINPDSGVINYAQKFQGRVTLTRDTSISTAYMELSGLRSDDTAVYYCARDKAIGYVWALDYWGQGTLVTVSS
VL: QSALTQPPSVSGSPGQSVTISCTGTSSDVGTYNRVSWYQQPPGKAPKLMIYEVSNRPSGVSNRFSGSKSGNTASLTISGLQAEDEADYYCSSYTRTFTYVFGTGTKVTVL
B11: Ab 26 (scFv, V domains shown)
VH: QVQLVQSGGGLVQPGRSLRLSCAASGFTFDDYAMHWVRQVPGKGLEWVSGIDWNSGVIGYADSVKGRFTISRDNAKNSLYLQMNSLRAEDTALYYCAKDAYSYGFLGAFDIWGQGTMVTVSS
VL: LPVLTQPPSVSVAPGQTASITCGGDNIRTKGVHWYQQKPGQAPLLVIYYASDRPSGIPERFSGSSSGNTATLTISRVEAGDEADYYCQVWDSSSDLVVFGGGTTLTVL
B12: Ab 23 (scFv, V domains shown)
VH: EVQLVQSGAEVKKPGSSVKVSCRSSGGTFSTYGITWVRQAPGQGLEWMGRIIPSLGIPNYAQKFQGRVTITADTSVSTAWMELSSLESDDTAIYYCARENIDLATNDFWGQGTLVTVSS
VL: QSALTQPPSASGSPGQSVTISCTGTSRDIGAYGYVSWYQQVPGKAPKLIIYEVRNRPSGVSSRFSGSKSGNTASLTISGLQAEDEADYYCSSYTSSSTLDVVFGGGTKLTVL
B13: Ab 21 (scFv, V domains shown)
VH: QVQLVQSGGGLVQPGGSLRLSCATSGFTFDDYAMHWVRQAPGKGLEWVSGISWNSGSIGYVDSVKGRFTISRDNRNNKVYLQMNNLRAEDTAVYYCARDWWGSIDHWGLGTLVTVSS
VL: QSALTQPRSVSGSPGQSVTISCTGTSSDVGGYDYVSWYQQHPGKAPKLIIYDVSKRPSGVPDRFSGSKSGNTASLTVSGLQAEDEADYYCSSYTSSSPVVFGGGTKLTVL
B14: RBD-R3-E1-A5 Ab (Ab_30) (scFv, V domains shown)
VH: QVQLVQSGGGVVQPGKSLRLSCTASGFTFSDFPIHWVRQAPGKGLEWVGVISYDGNIKYYGDSVKGRFTISRDNAKNSLYLQMNSLRVEDTAVYYCARGGSSFDIWGQGTTVTVSS
VL: SYELTQPPSVSEAPRQRVTISCSGSTSNIGNNAVSWYQHLPGKAPKLLIYYNERLPSGVSDRFSGSKSGTSASLAISGLRSEDEADYYCAAWDDSLSGHVVFGGGTKLTVL
B15: Ab_14 (scFv, V domains shown)
VH: QVQLQQSGPGLVKPSQTLSLTCAISGDSVSSNSAAWNWIRQSPARGLEWLGRTYYRSRWYNDYAISMKSRITINPDTSKNQFSLQLESVTPEDTAVYYCAREIRGFDYWGQGTLVTVSS
VL: QSVLTQPPSASGSPGQSVTISCTGTSSDVGAYNFVSWYQHHPGKAPKLIIYDFNKRPSGVPDRFSGSKSGNTASLTVSGLQADDEADYYCSSYAGSNNFDVVFGGGTKLTVL

This assay has as its target D614G Spike (SARS-CoV-2, UniProt P0DTC2 16-1213).
Turning to B1, the Kd stood at 8.35 pM.

In turn, B2 registered a Kd of 10.9 pM.

B3 displayed an equilibrium dissociation constant (Kd) of 6.8 pM.

B4 returned a Kd of 1.04 pM.

B5: binding was characterised by a dissociation constant (Kd) of 6.33 pM.

For B6, the Kd amounted to 8.64 pM.

On to B7, for which the Kd was found to be 9.03 pM.

In turn, B8 registered a Kd of 8.56 pM.

B9 came in with a Kd of 9.41 pM. This Kd and that of the molecule before are within 1.5-fold of each other.

Consider B10, for which the Kd was found to be 7.53 pM.

As to B11, the Kd was 9.97 pM.

B12: the dissociation constant Kd was found to be 8.82 pM.

B13 registered a Kd of 8 pM.

Take B14: the dissociation constant Kd came out at 7.43 pM.

The molecule B15 yielded a Kd of 8.12 pM.

The Kd is a measure of binding affinity in units of concentration. A lower Kd goes with higher affinity.
